Measured values as given in article PMC9254699 (2021).
No end group written: not given here.

Tests used:
TGF-β1 [1] = target: T1, TGF-β1 (Homo sapiens, UniProt P01137); experiment: SPR
TGF-β1 [2] = target: T1, TGF-β1; experiment: SPR; remark: listed apart in the source
TGF-β1 [3] = target: T1, TGF-β1; experiment: sequestering from PRP by peptide-conjugated microspheres
TGF-β1 [4] = target: T1, TGF-β1; experiment: 125I-TGF-β1 sequestering in 10% serum by peptide-conjugated microspheres

T1 sequence (P01137 279-390): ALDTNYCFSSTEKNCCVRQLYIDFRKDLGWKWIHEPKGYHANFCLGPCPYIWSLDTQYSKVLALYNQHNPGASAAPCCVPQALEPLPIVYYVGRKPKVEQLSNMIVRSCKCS

Binder	Kd (TGF-β1 [1]) [nM]	Kd (TGF-β1 [2]) [nM]	Kd (TGF-β1 [3]) [nM]	Kd (TGF-β1 [4]) [nM]
CIAEIDLIPRDRPF (also: conjugated to PEG microspheres)	–	–	~215	~211
CLIDFRIPADREVPI [Scrambled RIP]	745	765	–	–

Further lines, results first:

Kd (TGF-β1 [1]) [nM]	Kd (TGF-β1 [2]) [nM]	Kd (TGF-β1 [3]) [nM]	Kd (TGF-β1 [4]) [nM]	Binder
183	106	–	–	CIAEIDLIPRDRPF
98.3	60	–	–	CIAEIDLIPRDRPFV [RIP]
